Assay results reported in patent US20190352402A1 (NANJING LEADS BIOLABS, published 2019).
Read-outs that look alike come from different tables or passages of the source.

What was measured:
[1] = molecular target: T1, Human ICOS (Acrobiosystems, Cat# ICS-H5250) (human, UniProt Q9Y6W8 21-140, limits assumed); experiment: ELISA, human ICOS coated at 25 ng/well
T1 sequence (looked up): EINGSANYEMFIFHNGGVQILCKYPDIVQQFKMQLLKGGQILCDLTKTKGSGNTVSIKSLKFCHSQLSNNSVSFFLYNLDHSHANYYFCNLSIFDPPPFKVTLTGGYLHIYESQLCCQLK

[2] = molecular target: T2, mouse PD-1 protein (SINO Biological Inc., Cat#50124-M08H) (mouse, UniProt Q02242 25-167); experiment: ELISA, mouse PD-1 coated at 25 ng/well
T2 sequence (looked up): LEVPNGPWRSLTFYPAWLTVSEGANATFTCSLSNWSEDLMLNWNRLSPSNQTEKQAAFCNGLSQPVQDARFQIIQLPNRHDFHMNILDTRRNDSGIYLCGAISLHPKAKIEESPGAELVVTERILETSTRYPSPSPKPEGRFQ

[3] = molecular target: T3, human CTLA-4 (Acrobiosystems, Cat# CT4-H5229) (human, UniProt P16410 36-161); experiment: ELISA, human CTLA-4 coated at 25 ng/well
T3 sequence (looked up): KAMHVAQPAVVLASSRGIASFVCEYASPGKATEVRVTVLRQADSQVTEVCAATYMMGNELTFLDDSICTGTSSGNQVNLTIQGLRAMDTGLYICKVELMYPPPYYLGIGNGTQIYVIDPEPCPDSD

[4] = molecular target: T4, cynomolgus PD-1 expressed on stimulated cynomolgus PBMCs (cynomolgus monkey, UniProt B0LAJ3 25-288); experiment: flow cytometry on cynomolgus PBMCs after SEB stimulation, MFI
T4 construct: also called monkey PD-1; PD-1 expressed on cynomolgus monkey PBMCs
T4 sequence (B0LAJ3 entry or part of it limits assumed): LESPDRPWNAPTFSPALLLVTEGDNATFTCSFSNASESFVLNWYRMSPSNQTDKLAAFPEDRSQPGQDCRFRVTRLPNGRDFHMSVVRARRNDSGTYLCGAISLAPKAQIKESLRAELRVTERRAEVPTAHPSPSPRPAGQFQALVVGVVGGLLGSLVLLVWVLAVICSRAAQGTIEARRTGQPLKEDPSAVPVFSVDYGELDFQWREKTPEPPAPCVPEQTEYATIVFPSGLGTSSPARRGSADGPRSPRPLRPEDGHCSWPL

[5] = molecular target: T5, human BTLA (Acrobiosystems, Cat# BTA-H52E0) (human, UniProt Q7Z6A9 31-150, limits assumed); experiment: ELISA, human BTLA coated at 25 ng/well
T5 sequence (looked up): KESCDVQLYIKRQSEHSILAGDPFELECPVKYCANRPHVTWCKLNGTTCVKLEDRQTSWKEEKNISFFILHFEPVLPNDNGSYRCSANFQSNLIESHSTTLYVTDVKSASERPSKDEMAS

[6] = molecular target: Human FcγRI (Acrobiosystems, Cat# FCA-H52H2) (human, UniProt P12314 16-288); experiment: ELISA, human FcγRI coated, detection with anti-human F(ab')2-HRP
Sequence of Human FcγRI (Acrobiosystems, Cat# FCA-H52H2) (P12314 16-288 limits assumed): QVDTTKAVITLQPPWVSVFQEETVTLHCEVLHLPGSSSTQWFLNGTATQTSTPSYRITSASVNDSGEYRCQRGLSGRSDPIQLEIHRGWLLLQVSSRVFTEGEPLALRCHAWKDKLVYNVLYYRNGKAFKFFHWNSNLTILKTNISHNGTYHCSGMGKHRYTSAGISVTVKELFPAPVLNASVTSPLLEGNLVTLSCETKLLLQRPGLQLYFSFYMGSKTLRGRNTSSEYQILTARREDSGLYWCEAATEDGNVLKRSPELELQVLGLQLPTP

[7] = molecular target: T6, Human PD-1 protein (SINO Biological Inc., Cat#10377-H08H-100) (human, UniProt Q15116 25-167); experiment: ELISA, human PD-1 coated at 25 ng/well, detection with anti-human F(ab')2-HRP
T6 construct: Bought protein
T6 sequence (Q15116 25-167 limits assumed): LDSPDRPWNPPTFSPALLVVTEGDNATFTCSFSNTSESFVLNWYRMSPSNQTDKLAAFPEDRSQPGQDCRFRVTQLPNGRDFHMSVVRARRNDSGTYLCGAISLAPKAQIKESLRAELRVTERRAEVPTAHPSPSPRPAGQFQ

[8] = molecular target: T7, Human PD-1 (prepared in Leadsbiolabs, amino acid sequence of NP_005009.2 set forth in SEQ ID NO.: 66) (human, UniProt Q15116 25-170, limits assumed); experiment: blocking ELISA, human PD-1 coated, blocked ligand human PD-L1-mouse Fc-tag
T7 sequence (Q15116 25-170 limits assumed): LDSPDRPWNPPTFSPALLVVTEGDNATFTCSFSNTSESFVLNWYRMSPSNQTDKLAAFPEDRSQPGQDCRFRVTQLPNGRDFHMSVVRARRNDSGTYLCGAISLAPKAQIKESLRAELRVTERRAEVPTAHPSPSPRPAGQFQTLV

[9] = molecular target: T7, Human PD-1 (prepared in Leadsbiolabs, …); experiment: as above; remark: listed apart in the source
[10] = molecular target: T7, Human PD-1 (prepared in Leadsbiolabs, …); experiment: as above; remark: listed apart in the source
[11] = molecular target: T8, human PD-1 of SEQ ID NO.: 66 stably expressed on transfected cells (CHO-K1-PD-1 cells; Jurkat-NFAT-PD1 cells) (human, UniProt Q15116 25-288); experiment: flow cytometry on CHO-K1 cells stably expressing human PD-1, MFI
T8 construct: also called cell surface PD-1; PD-1 expressed on CHO-K1-PD-1 cells
T8 sequence (Q15116 25-288 limits assumed): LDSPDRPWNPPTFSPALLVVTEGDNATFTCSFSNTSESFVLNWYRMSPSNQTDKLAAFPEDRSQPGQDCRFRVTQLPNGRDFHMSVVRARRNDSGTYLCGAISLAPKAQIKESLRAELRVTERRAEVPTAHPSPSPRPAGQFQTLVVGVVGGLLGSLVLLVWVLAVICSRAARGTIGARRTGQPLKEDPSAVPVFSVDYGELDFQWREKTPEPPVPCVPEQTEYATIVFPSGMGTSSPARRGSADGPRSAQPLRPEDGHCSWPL

[12] = molecular target: T7, Human PD-1 (prepared in Leadsbiolabs, …); experiment: blocking ELISA, human PD-1 coated, blocked ligand human PD-L1-mouse Fc-tag; remark: listed apart in the source
[13] = molecular target: T6, Human PD-1 protein (SINO Biological …); experiment: ELISA, human PD-1 coated at 25 ng/well, detection with anti-human F(ab')2-HRP; remark: listed apart in the source
[14] = molecular target: T7, Human PD-1 (prepared in Leadsbiolabs, …); experiment: blocking ELISA, human PD-1 coated, blocked ligand human PD-L1-mouse Fc-tag; x axis printed as log values -1 to 2
[15] = molecular target: T6, Human PD-1 protein (SINO Biological …); experiment: ELISA, human PD-1 coated at 25 ng/well, detection with anti-human F(ab')2-HRP; remark: listed apart in the source
[16] = molecular target: T6, Human PD-1 protein (SINO Biological …); experiment: as above; remark: listed apart in the source
[17] = molecular target: T7, Human PD-1 (prepared in Leadsbiolabs, …); experiment: blocking ELISA, human PD-1 coated, blocked ligand human PD-L1-mouse Fc-tag; fit value printed in the table although the control's curve does not fall (see non_binding)
[18] = molecular target: T6, Human PD-1 protein (SINO Biological …); experiment: ELISA, human PD-1 coated at 25 ng/well
[19] = molecular target: T9, cynomolgus PD-1-his protein (Acrobiosystems, Cat# PD1-05223) (cynomolgus monkey, UniProt B0LAJ3 25-170); experiment: ELISA, cynomolgus PD-1 coated at 25 ng/well
T9 construct: also called cynoPD-1-his; cynomolgus PD-1 protein
T9 sequence (B0LAJ3 entry or part of it limits assumed): as the sequence (Q15116 25-170 limits assumed) above, with D2E, P10A, V19L, T35A, Q75R, T144A counted along it

B1: Nivolumab analog (antibody, human IgG4 S228P, kappa, V domains shown)
VH: QVQLVESGGGVVQPGRSLRLDCKASGITFSNSGMHWVRQAPGKGLEWVAVIWYDGSKRYYADSVKGRFTISRDNSKNTLFLQMNSLRAEDTAVYYCATNDDYWGQGTLVTVSS
VL: EIVLTQSPATLSLSPGERATLSCRASQSVSSYLAWYQQKPGQAPRLLIYDASNRATGIPARFSGSGSGTDFTLTISSLEPEDFAVYYCQQSSNWPRTFGQGTKVEIKR
notes: also called positive control
- binding result [1]: no binding (tested: about 2 nM)
- binding result [2]: no binding (tested: about 2 nM)
- binding result [3]: no binding (tested: about 2 nM)
- EC50 [4]: 0.692 nM
- binding result [5]: no binding (tested: about 2 nM)

B2: Rituximab analog (antibody, human IgG1, kappa)
heavy: not shown
light: QIVLSQSPAILSASPGEKVTMTCRASSSVSYIHWFQQKPGSSPKPWIYATSNLASGVPVRFSGSGSGTSYSLTISRVEAEDAATYYCQQWTSNPPTFGGGTKLEIKRTVAAPSVFIFPPSDEQLKSGTASVVCLLNNFYPREAKVQWKVDNALQSGNSQESVTEQDSKDSTYSLSSTLTLSKADYEKHKVYACEVTHQGLSSPVTKSFNRGEC
notes: Wild type IgG1 heavy chain constant region; also called positive control of the FcγRI ELISA
- binding result [6]: binds

B3: anti-PD-1 antibody 21F12 (mutant IgG1 constant region of SEQ ID NO: 18) (antibody, V domains shown)
VH: QMQLVQSGAEVKKPGASVKLSCKASGYIFTSYYIHWVRQAPGQGLEWVGVINPSGGSTTYAQKFQGRVTMTRDTSISTAYMELSRLRSDDTVVYYCARGSYSSGWDYYYYYGMDVWGKGTLVTVSS
VL: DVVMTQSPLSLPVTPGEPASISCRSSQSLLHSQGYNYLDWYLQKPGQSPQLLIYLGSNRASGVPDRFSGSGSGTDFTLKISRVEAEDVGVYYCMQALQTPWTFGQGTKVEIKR
notes: Full length IgG expressed in CHO-S cells
- EC50 [7]: 0.0447 nM
- IC50 [8]: 0.834 nM
- IC50 [9]: 0.913 nM
- IC50 [10]: 0.684 nM
- EC50 [11]: 1.06 nM
- IC50 [12]: 0.716 nM

B4: anti-PD-1 antibody 21F12-2E1 (mutant IgG1 constant region of SEQ ID NO: 18) (antibody, V domains shown)
VH: QMQLVQSGAEVKKPGASVKLSCKASEYIFQSYYIHWVRQAPGQGLEWVGVINPSGGSTTYAQKFQGRVTMTRDTSISTAYMELSRLRSDDTVVYYCARGSYSSGWDYYYYYGMDVWGKGTLVTVSS
VL: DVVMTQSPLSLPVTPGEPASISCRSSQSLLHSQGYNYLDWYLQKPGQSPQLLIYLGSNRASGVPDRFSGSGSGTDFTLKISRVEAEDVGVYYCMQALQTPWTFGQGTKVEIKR
notes: mutant IgG1
- EC50 [13]: 0.136 nM
- IC50 [9]: 1.1 nM

B5: anti-PD-1 antibody 21F12-1B12 (mutant IgG1 constant region of SEQ ID NO: 18) (antibody, V domains shown)
VH: QMQLVQSGAEVKKPGASVKLSCKASGYPFQSYYIHWVRQAPGQGLEWVGVINPSGGSTTYAQKFQGRVTMTRDTSISTAYMELSRLRSDDTVVYYCARGSYSSGWDYYYYYGMDVWGKGTLVTVSS
VL: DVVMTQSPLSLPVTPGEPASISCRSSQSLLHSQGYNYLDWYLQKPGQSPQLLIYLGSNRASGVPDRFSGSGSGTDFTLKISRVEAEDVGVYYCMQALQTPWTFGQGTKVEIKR
notes: mutant IgG1
- EC50 [13]: 0.102 nM
- IC50 [14]: 0.725 nM
- IC50 [9]: 0.623 nM
- EC50 [11]: 0.257 nM
- EC50 [15]: 0.0936 nM

B6: anti-PD-1 antibody 21F12-1E11 (mutant IgG1 constant region of SEQ ID NO: 18) (antibody, V domains shown)
VH: QMQLVQSGAEVKKPGASVKLSCKASGYFFQSYYIHWVRQAPGQGLEWVGVINPSGGSTTYAQKFQGRVTMTRDTSISTAYMELSRLRSDDTVVYYCARGSYSSGWDYYYYYGMDVWGKGTLVTVSS
VL: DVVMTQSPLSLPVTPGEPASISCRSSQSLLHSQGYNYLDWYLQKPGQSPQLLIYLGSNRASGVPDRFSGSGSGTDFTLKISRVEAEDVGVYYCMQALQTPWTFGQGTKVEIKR
notes: mutant IgG1
- EC50 [13]: 0.0936 nM
- EC50 [16]: 0.0914 nM
- IC50 [9]: 0.653 nM

B7: anti-PD-1 antibody 21F12-1C4 (mutant IgG1 constant region of SEQ ID NO: 18) (antibody, V domains shown)
VH: QMQLVQSGAEVKKPGASVKLSCKASDYIFTSYYIHWVRQAPGQGLEWVGVINPSGGSTTYAQKFQGRVTMTRDTSISTAYMELSRLRSDDTVVYYCARGSYSSGWDYYYYYGMDVWGKGTLVTVSS
VL: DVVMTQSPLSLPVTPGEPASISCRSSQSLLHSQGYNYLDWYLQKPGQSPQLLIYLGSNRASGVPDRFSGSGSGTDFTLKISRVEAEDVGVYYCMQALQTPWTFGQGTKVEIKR
notes: mutant IgG1
- EC50 [11]: 0.479 nM
- IC50 [12]: 0.558 nM

B8: anti-PD-1 antibody 21F12-1E10 (mutant IgG1 constant region of SEQ ID NO: 18) (antibody, V domains shown)
VH: QMQLVQSGAEVKKPGASVKLSCKASGYPFTSYYIHWVRQAPGQGLEWVGVINPSGGSTTYAQKFQGRVTMTRDTSISTAYMELSRLRSDDTVVYYCARGSYSSGWDYYYYYGMDVWGKGTLVTVSS
VL: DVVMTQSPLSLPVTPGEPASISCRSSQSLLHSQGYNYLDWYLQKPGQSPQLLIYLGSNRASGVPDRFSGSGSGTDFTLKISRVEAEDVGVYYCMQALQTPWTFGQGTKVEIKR
notes: mutant IgG1
- EC50 [16]: 0.111 nM
- IC50 [10]: 0.482 nM
- EC50 [11]: 0.464 nM

B9: anti-PD-1 antibody 21F12-3G1 (mutant IgG1 constant region of SEQ ID NO: 18) (antibody, V domains shown)
VH: QMQLVQSGAEVKKPGASVKLSCKASGYIFTSYYIHWVRQAPGQGLEWVGVINPSGGSTTYAQKFQGRVTMTRDTSISTAYMELSRLRSDDTVVYYCARGSYNSGWDYYYYYGMDVWGKGTLVTVSS
VL: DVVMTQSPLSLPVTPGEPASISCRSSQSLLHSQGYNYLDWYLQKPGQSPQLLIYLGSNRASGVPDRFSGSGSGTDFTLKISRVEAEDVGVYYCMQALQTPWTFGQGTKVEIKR
notes: mutant IgG1
- IC50 [8]: 0.699 nM
- EC50 [16]: 0.108 nM
- EC50 [11]: 0.334 nM

B10: anti-PD-1 antibody 21F12-2H7 (mutant IgG1 constant region of SEQ ID NO: 18) (antibody, V domains shown)
VH: QMQLVQSGAEVKKPGASVKLSCKASQYIFQSYYIHWVRQAPGQGLEWVGVINPSGGSTTYAQKFQGRVTMTRDTSISTAYMELSRLRSDDTVVYYCARGSYSSGWDYYYYYGMDVWGKGTLVTVSS
VL: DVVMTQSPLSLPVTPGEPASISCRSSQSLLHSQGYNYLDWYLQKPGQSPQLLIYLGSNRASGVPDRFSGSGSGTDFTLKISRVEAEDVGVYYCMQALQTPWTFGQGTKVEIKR
notes: mutant IgG1
- EC50 [13]: 0.101 nM
- IC50 [9]: 1.15 nM

B11: IgG Control (antibody, V domains shown)
VH: QVQLQESGGGVVRPGGSLRLSCAASGFTFDDYGMSWVRQAPGKGLEWVSGINWSGGSTYYADSVKGRSTISRDNSKNTLYLQMNSLRAEDTAVYYCATGGYWGQGTLVTVSS
VL: not shown
notes: also called human IgG control
- IC50 [17]: 3.77 nM
- binding result [18]: no binding (tested: about 2 nM)
- binding result [19]: no binding (tested: about 2 nM)
